Source: patent US20150344570A1 (published 2015)

T1: FcγRIIb extracellular domain with C-terminal His tag (human, UniProt P31994 43-217)
T1 construct: extracellular domain; also called FcgRIIb; 2b; not shown: His tag at the C terminus
T1 sequence (looked up): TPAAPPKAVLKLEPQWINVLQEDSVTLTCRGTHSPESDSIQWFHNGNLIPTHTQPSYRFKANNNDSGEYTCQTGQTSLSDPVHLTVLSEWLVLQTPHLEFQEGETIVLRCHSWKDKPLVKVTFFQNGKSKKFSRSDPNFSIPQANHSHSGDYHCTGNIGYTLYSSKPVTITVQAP

T2: FcγRIIa H (FcγRIIa type H, His at position 131), extracellular domain with C-terminal His tag (human, UniProt P12318 34-217)
T2 construct: extracellular domain; also called FcgRIIa H; 2aH
T2 sequence (looked up): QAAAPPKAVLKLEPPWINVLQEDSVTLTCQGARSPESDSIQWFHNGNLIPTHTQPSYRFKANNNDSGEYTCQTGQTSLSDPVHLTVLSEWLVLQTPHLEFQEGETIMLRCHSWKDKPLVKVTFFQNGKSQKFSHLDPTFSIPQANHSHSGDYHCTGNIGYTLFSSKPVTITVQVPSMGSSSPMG

B1: GpH7-B3 variant K326_07I/GpL16-k0 (antibody, human IgG1, kappa)
heavy: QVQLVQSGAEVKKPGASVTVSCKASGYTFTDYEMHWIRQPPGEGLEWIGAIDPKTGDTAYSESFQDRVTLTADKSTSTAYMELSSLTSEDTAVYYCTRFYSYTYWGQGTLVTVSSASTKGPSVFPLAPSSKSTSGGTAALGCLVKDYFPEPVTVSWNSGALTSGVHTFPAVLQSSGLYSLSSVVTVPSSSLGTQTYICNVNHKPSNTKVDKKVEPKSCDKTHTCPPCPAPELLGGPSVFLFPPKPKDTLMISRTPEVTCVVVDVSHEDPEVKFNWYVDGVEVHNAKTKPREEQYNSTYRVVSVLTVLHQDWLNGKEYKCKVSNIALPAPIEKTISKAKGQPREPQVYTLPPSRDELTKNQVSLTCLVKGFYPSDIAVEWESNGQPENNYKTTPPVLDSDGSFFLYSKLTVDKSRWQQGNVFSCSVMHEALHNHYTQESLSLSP
light: DIVMTQSPLSLPVTPGEPASISCQASESLVHSNRNTYLHWYLQKPGQSPQLLIYKVSNRFSGVPDRFSGSGSGTDFTLKISRVEAEDVGVYYCSQNTHVPPTFGQGTKVEIERTVAAPSVFIFPPSDEQLKSGTASVVCLLNNFYPREAKVQWKVDNALQSGNSQESVTEQDSKDSTYSLSSTLTLSKADYEKHKVYACEVTHQGLSSPVTKSFNRGEC
notes: also called Ho Ab K326_07I
B2: GpH7-A5/GpH7-B3 variant H268_18N/GpL16-k0 (antibody, human IgG1, kappa)
heavy 1: not shown
heavy 2: not shown
light: B1 light
notes: one H chain mutated; also called He Ab
B3: GpH7-A5/GpH7-B3 variant K326_14T/GpL16-k0 (antibody, human IgG1, kappa)
heavy 1: not shown
heavy 2: not shown
light: B1 light
notes: as for B2
B4: GpH7-A5/GpH7-B3 variant K326_09D/GpL16-k0 (antibody, human IgG1, kappa)
heavy 1: not shown
heavy 2: not shown
light: B1 light
notes: as for B2
B5: GpH7-A5/GpH7-B3 variant S324_20W/GpL16-k0 (antibody, human IgG1, kappa)
heavy 1: not shown
heavy 2: not shown
light: B1 light
notes: as for B2
B6: GpH7-A5/GpH7-B3 variant K334_15Y/GpL16-k0 (antibody, human IgG1, kappa)
heavy 1: not shown
heavy 2: not shown
light: B1 light
notes: as for B2
B7: GpH7-A5/GpH7-B3 variant I336_06M/GpL16-k0 (antibody, human IgG1, kappa)
heavy 1: not shown
heavy 2: not shown
light: B1 light
notes: as for B2
B8: GpH7-A5/GpH7-B3 variant L328_06M/GpL16-k0 (antibody, human IgG1, kappa)
heavy 1: not shown
heavy 2: not shown
light: B1 light
notes: as for B2
B9: GpH7-A5/GpH7-B3 variant K334_07[ (read as K334_07I)/GpL16-k0 (antibody, human IgG1, kappa)
heavy 1: not shown
heavy 2: not shown
light: B1 light
notes: as for B2
B10: GpH7-A5/GpH7-B3 variant L235_20W/GpL16-k0 (antibody, human IgG1, kappa)
heavy 1: not shown
heavy 2: not shown
light: B1 light
notes: as for B2
B11: GpH7-A5/GpH7-B3 variant K334_03V/GpL16-k0 (antibody, human IgG1, kappa)
heavy 1: not shown
heavy 2: not shown
light: B1 light
notes: as for B2
B12: GpH7-A5/GpH7-B3 variant I332_04F/GpL16-k0 (antibody, human IgG1, kappa)
heavy 1: not shown
heavy 2: not shown
light: B1 light
notes: as for B2
B13: GpH7-A5/GpH7-B3 variant Q295_07I/GpL16-k0 (antibody, human IgG1, kappa)
heavy 1: not shown
heavy 2: not shown
light: B1 light
notes: as for B2
B14: GpH7-A5/GpH7-B3 variant T335_19Q/GpL16-k0 (antibody, human IgG1, kappa)
heavy 1: not shown
heavy 2: not shown
light: B1 light
notes: as for B2
B15: GpH7-A5/GpH7-B3 variant S239_09D/GpL16-k0 (antibody, human IgG1, kappa)
heavy 1: not shown
heavy 2: not shown
light: B1 light
notes: as for B2
B16: GpH7-A5/GpH7-B3 variant S337_16H/GpL16-k0 (antibody, human IgG1, kappa)
heavy 1: not shown
heavy 2: not shown
light: B1 light
notes: as for B2
B17: GpH7-A5/GpH7-B3 variant K334_08L/GpL16-k0 (antibody, human IgG1, kappa)
heavy 1: not shown
heavy 2: not shown
light: B1 light
notes: as for B2
B18: GpH7-A5/GpH7-B3 variant K326_10E/GpL16-k0 (antibody, human IgG1, kappa)
heavy 1: not shown
heavy 2: not shown
light: B1 light
notes: as for B2
B19: GpH7-A5/GpH7-B3 variant I336_08L/GpL16-k0 (antibody, human IgG1, kappa)
heavy 1: not shown
heavy 2: not shown
light: B1 light
notes: as for B2
B20: GpH7-A5/GpH7-B3 variant I332_16H/GpL16-k0 (antibody, human IgG1, kappa)
heavy 1: not shown
heavy 2: not shown
light: B1 light
notes: as for B2
B21: GpH7-A5/GpH7-B3 variant S324_09D/GpL16-k0 (antibody, human IgG1, kappa)
heavy 1: not shown
heavy 2: not shown
light: B1 light
notes: as for B2
B22: GpH7-A5/GpH7-B3 variant I332_09D/GpL16-k0 (antibody, human IgG1, kappa)
heavy 1: not shown
heavy 2: not shown
light: B1 light
notes: as for B2
B23: GpH7-A5/GpH7-B3 variant I332_03V/GpL16-k0 (antibody, human IgG1, kappa)
heavy 1: not shown
heavy 2: not shown
light: B1 light
notes: as for B2
B24: GpH7-A5/GpH7-B3 variant K326_06M/GpL16-k0 (antibody, human IgG1, kappa)
heavy 1: not shown
heavy 2: not shown
light: B1 light
notes: as for B2
B25: GpH7-A5/GpH7-B3 variant T335_16H/GpL16-k0 (antibody, human IgG1, kappa)
heavy 1: not shown
heavy 2: not shown
light: B1 light
notes: as for B2
B26: GpH7-A5/GpH7-B3 variant S337_14T/GpL16-k0 (antibody, human IgG1, kappa)
heavy 1: not shown
heavy 2: not shown
light: B1 light
notes: as for B2
B27: GpH7-A5/GpH7-B3 variant K334_14T/GpL16-k0 (antibody, human IgG1, kappa)
heavy 1: not shown
heavy 2: not shown
light: B1 light
notes: as for B2
B28: GpH7-A5/GpH7-B3 variant S324_02A/GpL16-k0 (antibody, human IgG1, kappa)
heavy 1: not shown
heavy 2: not shown
light: B1 light
notes: as for B2
B29: GpH7-A5/GpH7-B3 variant S324_06M/GpL16-k0 (antibody, human IgG1, kappa)
heavy 1: not shown
heavy 2: not shown
light: B1 light
notes: as for B2
B30: GpH7-A5/GpH7-B3 variant S324_10E/GpL16-k0 (antibody, human IgG1, kappa)
heavy 1: not shown
heavy 2: not shown
light: B1 light
notes: as for B2
B31: GpH7-A5/GpH7-B3 variant I332_18N/GpL16-k0 (antibody, human IgG1, kappa)
heavy 1: not shown
heavy 2: not shown
light: B1 light
notes: as for B2
B32: GpH7-A5/GpH7-B3 variant I332_13S/GpL16-k0 (antibody, human IgG1, kappa)
heavy 1: not shown
heavy 2: not shown
light: B1 light
notes: as for B2
B33: GpH7-A5/GpH7-B3 variant S267_02A/GpL16-k0 (antibody, human IgG1, kappa)
heavy 1: not shown
heavy 2: not shown
light: B1 light
notes: as for B2
B34: GpH7-A5/GpH7-B3 variant T335_15Y/GpL16-k0 (antibody, human IgG1, kappa)
heavy 1: not shown
heavy 2: not shown
light: B1 light
notes: as for B2
B35: GpH7-A5/GpH7-B3 variant L328_14T/GpL16-k0 (antibody, human IgG1, kappa)
heavy 1: not shown
heavy 2: not shown
light: B1 light
notes: as for B2
B36: GpH7-A5/GpH7-B3 variant I332_15Y/GpL16-k0 (antibody, human IgG1, kappa)
heavy 1: not shown
heavy 2: not shown
light: B1 light
notes: as for B2
B37: GpH7-A5/GpH7-B3 variant Q295_05P/GpL16-k0 (antibody, human IgG1, kappa)
heavy 1: not shown
heavy 2: not shown
light: B1 light
notes: as for B2
B38: GpH7-A5/GpH7-B3 variant I332_10E/GpL16-k0 (antibody, human IgG1, kappa)
heavy 1: not shown
heavy 2: not shown
light: B1 light
notes: as for B2
B39: GpH7-A5/GpH7-B3 variant T335_10E/GpL16-k0 (antibody, human IgG1, kappa)
heavy 1: not shown
heavy 2: not shown
light: B1 light
notes: as for B2
B40: GpH7-A5/GpH7-B3 variant S337_10E/GpL16-k0 (antibody, human IgG1, kappa)
heavy 1: not shown
heavy 2: not shown
light: B1 light
notes: as for B2
B41: GpH7-A5/GpH7-B3 variant S337_09D/GpL16-k0 (antibody, human IgG1, kappa)
heavy 1: not shown
heavy 2: not shown
light: B1 light
notes: as for B2
B42: GpH7-A5/GpH7-B3 variant T335_01G/GpL16-k0 (antibody, human IgG1, kappa)
heavy 1: not shown
heavy 2: not shown
light: B1 light
notes: as for B2
B43: GpH7-A5/GpH7-B3 variant I332_14T/GpL16-k0 (antibody, human IgG1, kappa)
heavy 1: not shown
heavy 2: not shown
light: B1 light
notes: as for B2
B44: GpH7-A5/GpH7-B3 variant K334_16H/GpL16-k0 (antibody, human IgG1, kappa)
heavy 1: not shown
heavy 2: not shown
light: B1 light
notes: as for B2
B45: GpH7-A5/GpH7-B3 variant P271_01G/GpL16-k0 (antibody, human IgG1, kappa)
heavy 1: not shown
heavy 2: not shown
light: B1 light
notes: as for B2
B46: GpH7-A5/GpH7-B3 variant L328_13S/GpL16-k0 (antibody, human IgG1, kappa)
heavy 1: not shown
heavy 2: not shown
light: B1 light
notes: as for B2
B47: GpH7-A5/GpH7-B3 variant K334_04F/GpL16-k0 (antibody, human IgG1, kappa)
heavy 1: not shown
heavy 2: not shown
light: B1 light
notes: as for B2
B48: GpH7-A5/GpH7-B3 variant T335_07I/GpL16-k0 (antibody, human IgG1, kappa)
heavy 1: not shown
heavy 2: not shown
light: B1 light
notes: as for B2
B49: GpH7-A5/GpH7-B3 variant I332_06M/GpL16-k0 (antibody, human IgG1, kappa)
heavy 1: not shown
heavy 2: not shown
light: B1 light
notes: as for B2
B50: GpH7-A5/GpH7-B3 variant L328_02A/GpL16-k0 (antibody, human IgG1, kappa)
heavy 1: not shown
heavy 2: not shown
light: B1 light
notes: as for B2
B51: GpH7-A5/GpH7-B3 variant T335_13S/GpL16-k0 (antibody, human IgG1, kappa)
heavy 1: not shown
heavy 2: not shown
light: B1 light
notes: as for B2
B52: GpH7-A5/GpH7-B3 variant I332_19Q/GpL16-k0 (antibody, human IgG1, kappa)
heavy 1: not shown
heavy 2: not shown
light: B1 light
notes: as for B2
B53: GpH7-A5/GpH7-B3 variant K326_19Q/GpL16-k0 (antibody, human IgG1, kappa)
heavy 1: not shown
heavy 2: not shown
light: B1 light
notes: as for B2

molecular target: T1, FcγRIIb extracellular domain with …; experiment: SPR, relative binding, HoCon Ab = 100
Description: (§1) Analysis of interaction between objective antibody and the FcγR was carried out using Biacore T100 (GE Healthcare). HBS-EP+ (GE Healthcare) was used as the running buffer, and the measurement temperature was set to 25° C. Chips produced by immobilizing the antigen peptide by the amine coupling method to a Series S Sencor Chip CM5 (GE Healthcare), or alternatively, chips produced by allowing preliminarily biotinylated antigen peptides to interact with and immobilize onto a Series S Sensor Chip SA (certified) (GE Healthcare) were used. Antibodies of interest were captured onto an antigen peptide-immobilized chip, and allowed to interact to each FcγR diluted with running buffer. To regenerate and repeatedly use the chip, the antibodies captured on the chip were washed off by reacting 10 mM glycine-HCl, pH 1.5.

Ho/Con_2b | Binder
170 % of control | B1

molecular target: T2, FcγRIIa H (FcγRIIa type H, His at …); experiment: SPR Biacore, relative binding, GpH7-A5/GpH7-B3/GpL16-k0 (HeCon Ab)=100
Description: as §1

He/Con_2aH | Binder
112 % of control | B2
114 % of control | B3
110 % of control | B4
103 % of control | B5
106 % of control | B6
106 % of control | B7
104 % of control | B8
110 % of control | B9
118 % of control | B10
109 % of control | B11
104 % of control | B12
102 % of control | B13
103 % of control | B14
114 % of control | B15
101 % of control | B16
104 % of control | B17
102 % of control | B18
106 % of control | B19
109 % of control | B20
106 % of control | B21
118 % of control | B22
105 % of control | B23
103 % of control | B24
105 % of control | B25
103 % of control | B26
103 % of control | B27

He/Con_2aH | Binder
102 % of control | B28
117 % of control | B29
103 % of control | B30
110 % of control | B31
110 % of control | B32
120 % of control | B33
106 % of control | B34
116 % of control | B35
115 % of control | B36
103 % of control | B37
108 % of control | B38
108 % of control | B39
102 % of control | B40
107 % of control | B41
103 % of control | B42
115 % of control | B43
104 % of control | B44
107 % of control | B45
123 % of control | B46
106 % of control | B47
108 % of control | B48
110 % of control | B49
130 % of control | B50
106 % of control | B51
108 % of control | B52
101 % of control | B53
